Results published in publication PMC5543139.

Target: glucagon receptor on CHO-GCGR cells (human) (UniProt P47871)
Test: flow cytometry on live cells
Details: D-PBS pH 7.4, 5 mM MgCl2, 4.5 g/L glucose, 0.1 mg/mL yeast tRNA, 1 mg/L BSA; 4 C, 1 h (45 min in Results for Kd)

Chain of glucagon receptor on CHO-GCGR cells (human) (P47871 26-477): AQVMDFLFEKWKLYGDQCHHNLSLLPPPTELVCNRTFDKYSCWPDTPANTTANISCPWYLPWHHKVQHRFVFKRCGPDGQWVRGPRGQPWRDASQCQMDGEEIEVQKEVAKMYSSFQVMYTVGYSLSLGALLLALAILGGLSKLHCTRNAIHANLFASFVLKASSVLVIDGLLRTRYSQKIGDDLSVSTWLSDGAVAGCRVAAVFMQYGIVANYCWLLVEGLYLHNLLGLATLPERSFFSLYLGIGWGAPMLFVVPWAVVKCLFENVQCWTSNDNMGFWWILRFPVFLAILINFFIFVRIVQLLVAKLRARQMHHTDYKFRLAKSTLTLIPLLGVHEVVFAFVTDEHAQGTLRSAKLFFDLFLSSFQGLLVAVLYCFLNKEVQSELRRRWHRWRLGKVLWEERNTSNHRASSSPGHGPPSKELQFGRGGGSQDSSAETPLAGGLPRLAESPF

ATCCAGAGTGACGCAGCAGATAAGTAGGTATCCGTTTGAAAAACTTTTCTGACCGTCCGACTATGGACACGGTGGCTTAGT [GR-3]
Kd: 52.7 nM
